Test results as given in patent publication CN116003603A (CR BIO MEDICAL INC, dated 2023).
Residue numbers refer to the chain shown, from its start.

B1: CLDN-BC-P1530-hH1 (antibody, V domains shown)
VH: QVQLVESGGGLVQPGGSLRLSCAASRFTFSNYAMNWVRQAPGKGLEWVSSISGSGGSSYYADSVKGRFTISKDNSQNMLYLQMNSLRAEDTAVYYCAKADWKYGYYGMDVWGQGTTVTVSS
VL: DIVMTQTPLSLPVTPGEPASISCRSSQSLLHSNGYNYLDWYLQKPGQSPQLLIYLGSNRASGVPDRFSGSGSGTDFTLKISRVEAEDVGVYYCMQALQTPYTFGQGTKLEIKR
notes: also called P1530-IgG1
B2: CLDN-BC-P1531-hH1 (antibody, V domains shown)
VH: B1 VH with T116M
VL: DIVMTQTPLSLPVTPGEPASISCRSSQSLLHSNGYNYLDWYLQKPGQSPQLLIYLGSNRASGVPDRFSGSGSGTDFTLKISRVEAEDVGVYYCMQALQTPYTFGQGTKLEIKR
notes: also called CLN-P1531-hH1; P1531-IgG1

Tests used:
[1] = biological target: T1, CLDN18.2 (antigen of the ka/kd/KD measurement, species and form not stated); assay: affinity measurement, method not described (Table 2-2, headed P1530)
[2] = biological target: T2, CLDN18.2 (on CLDN18.2过表达细胞, species not stated); assay: flow cytometry, antibody titration on CLDN18.2 over-expressing cells, MFI (Table 2-2, headed P1530)
T2 construct: whole, on cells

[3] = biological target: T1, CLDN18.2 (antigen of the ka/kd/KD …); assay: affinity measurement, method not described
[4] = biological target: T2, CLDN18.2 (on CLDN18.2过表达细胞, species not …); assay: flow cytometry, antibody titration on CLDN18.2 over-expressing cells, MFI

T1 sequence (P56856 other isoform, or with tags, fused parts or gaps): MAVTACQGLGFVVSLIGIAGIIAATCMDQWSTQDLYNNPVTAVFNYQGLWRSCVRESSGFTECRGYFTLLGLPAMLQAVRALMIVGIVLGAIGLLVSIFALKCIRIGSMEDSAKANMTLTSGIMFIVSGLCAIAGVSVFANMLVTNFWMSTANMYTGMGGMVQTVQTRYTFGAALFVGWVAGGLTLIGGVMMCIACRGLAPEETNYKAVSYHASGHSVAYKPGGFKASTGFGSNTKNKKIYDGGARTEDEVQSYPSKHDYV

Row | Binder | Kd [1] | koff [1] | kon [1] | EC50 [2] | Kd [3] | koff [3] | kon [3] | EC50 [4]
1 | B1 | 6.8 nM | 0.00355 s⁻¹ | 523000 M⁻¹ s⁻¹ | 0.62 µg/mL |  |  |  | 
2 | B2 |  |  |  |  | 5.9 nM | 0.00293 s⁻¹ | 497000 M⁻¹ s⁻¹ | 0.69 µg/mL
